Experimental data as given in PMC6128619, “Allosteric Activation Shifts the Rate-Limiting Step in a Short-Form ATP Phosphoribosyltransferase” (Biochemistry, 2018).
Where two headings read alike, the source gives them in different places.

T1: PaHisGS (short-form ATP phosphoribosyltransferase catalytic subunit) (Psychrobacter arcticus, UniProt Q4FQF7)
T1 construct: gene hisG
T1 sequence (Q4FQF7 1-231): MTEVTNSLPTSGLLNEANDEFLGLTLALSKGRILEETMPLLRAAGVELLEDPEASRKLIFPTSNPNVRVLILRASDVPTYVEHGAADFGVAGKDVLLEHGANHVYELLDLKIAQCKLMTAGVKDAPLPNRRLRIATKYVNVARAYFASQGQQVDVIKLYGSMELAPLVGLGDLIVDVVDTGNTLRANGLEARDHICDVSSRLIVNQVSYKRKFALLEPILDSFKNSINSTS


Tests used:
[1] = molecular target: T1, PaHisGS (short-form ATP phosphoribosyltransferase catalytic subunit); test: steady-state inhibition kinetics, absorbance at […] nm (IC50 […]; Ki […] vs PRPP, […] vs ATP); format: biochemical
[2] = molecular target: T1, PaHisGS (short-form ATP phosphoribosyltransferase catalytic subunit); test: steady-state kinetics, initial velocity patterns, […] NMR of turnover (no ITC or DSF signal without PRPP); format: biochemical
[3] = molecular target: T1, PaHisGS (short-form ATP phosphoribosyltransferase catalytic subunit); test: […] NMR of product formation and steady-state kinetics (alternative substrate, with PRPP); format: biochemical
[4] = molecular target: T1, PaHisGS (short-form ATP phosphoribosyltransferase catalytic subunit); test: ITC (single-site model, […]); DSF Tm shift +[…] °C; format: binding
[5] = substrate: Nc1ncnc2c1ncn2[C@@H]1O[C@H](COP(=O)(O)OP(=O)(O)OP(=O)(O)O)[C@@H](O)[C@H]1O; test: purified protein, by the assay type; design: steady-state kinetics, spectrophotometric PRATP formation, substrate saturation fitted for KM
Protocol: (§1) For a quantitative comparison of the reactions with ATP and ADP, steady-state kinetic analysis of the reaction with either substrate was carried out (Figure 4) and kinetic parameters are summarized in Table S3. […] Replacement of Mg^2+ by Mn^2+ is a common strategy in enzymology,[36] having been employed to uncover rate-limiting steps in reactions involving stabilization of phosphate groups.[37] HisGL ATPPRTs have been reported to have their activities either unaltered or decreased by changing the divalent metal in the reaction from the physiological Mg^2+ to Mn^2+, but no mechanistic inference has been drawn.[17],[38] […] Mn^2+ led to 2.6- and 11-fold increases in PaHisGSkcat and kcat/KM^ATP, respectively, as compared with Mg^2+. The change in kcat/KM^ATP was driven in large part by a reduction in KM^ATP. LC-MS analysis of the PaHisGS reaction with Mn^2+ confirmed the same product, PRATP, was being formed (Figure S5). Kinetic and DSF data were analyzed by the nonlinear regression function of SigmaPlot 13 (SPSS Inc.). Data points and error bars in graphs are represented as mean ± standard error, and kinetic and equilibrium constants are presented as mean ± fitting error. Initial rate data with varying concentrations of PaHisZ were fitted to eq 1. The concentration of PaATPPRT at any concentration of PaHisGS and PaHisZ was calculated according to eq 2. Substrate saturation data were fitted to eq 3. Inhibition data at fixed substrate concentrations were fitted to eq 4, and competitive inhibition data were fitted to eq 5. Initial velocity patterns were fitted to eq 6, and pre-steady-state kinetics under multiple-turnover conditions was fitted to eq 7. In eqs 1–7, v is the initial rate, Vmax is the maximal velocity, G is the concentration of PaHisGS, Z is the concentration of PaHisZ, KD is the equilibrium dissociation constant, PaATPPRT is the concentration of PaHisGS-PaHisZ complex, S is the concentration of the varying substrate, kcat is the steady-state turnover number, KM is the apparent Michaelis constant, ET is total enzyme concentration, vi is the initial rate in the presence of inhibitor, IC50 is the half-maximal inhibitory concentration, Ki is the inhibitor dissociation constant, A and B are the first and second substrates to bind to the enzyme, respectively, Ka and Kb are their respective Michaelis constants, Kia is the apparent dissociation constant for the complex between enzyme and substrate A when the concentration of B approaches zero, t is time, P(t) is product concentration at time t, A0 is the amplitude of the burst phase, and kburst is the first-order rate constant of product formation in the burst phase. DSF thermal denaturation data were fitted to eq 8,[32] where FU is fraction unfolded, T is the temperature in °C, Tm is the melting temperature, c is the slope of the transition region, and LL and UL are folded and unfolded baselines, respectively. [drawing 1] 1 [drawing 2] 2 [drawing 3] 3 [drawing 4] 4 [drawing 5] 5 [drawing 6] 6 [drawing 7] 7 [drawing 8] 8

[6] = substrate: O=P(O)(O)OC[C@H]1O[C@H](OP(=O)(O)OP(=O)(O)O)[C@H](O)[C@@H]1O; test: purified protein, by the assay type; design: steady-state kinetics, spectrophotometric PRATP formation, substrate saturation fitted for KM
Protocol: as §1

[7] = substrate: Nc1ncnc2c1ncn2[C@@H]1O[C@H](COP(=O)(O)OP(=O)(O)OP(=O)(O)O)[C@@H](O)[C@H]1O; test: purified protein, by the assay type; design: steady-state substrate saturation kinetics with Mg2+, Michaelis-Menten fit
Text: (§2) Replacement of Mg^2+ by Mn^2+ is a common strategy in enzymology,[36] having been employed to uncover rate-limiting steps in reactions involving stabilization of phosphate groups.[37] HisGL ATPPRTs have been reported to have their activities either unaltered or decreased by changing the divalent metal in the reaction from the physiological Mg^2+ to Mn^2+, but no mechanistic inference has been drawn.[17],[38] […] Mn^2+ led to 2.6- and 11-fold increases in PaHisGSkcat and kcat/KM^ATP, respectively, as compared with Mg^2+. The change in kcat/KM^ATP was driven in large part by a reduction in KM^ATP. LC-MS analysis of the PaHisGS reaction with Mn^2+ confirmed the same product, PRATP, was being formed (Figure S5).  Figure 5 Steady-state kinetics with Mg^2+ (green) and Mn^2+ (blue). Saturation curves varying either PRPP or ATP concentration with saturating concentration of the cosubstrate for (A and B) PaHisGS and (C and D) PaATPPRT. Data points are mean ± SE, and lines are data fitting to eq 3. Kinetic and DSF data were analyzed by the nonlinear regression function of SigmaPlot 13 (SPSS Inc.). Data points and error bars in graphs are represented as mean ± standard error, and kinetic and equilibrium constants are presented as mean ± fitting error. Initial rate data with varying concentrations of PaHisZ were fitted to eq 1. The concentration of PaATPPRT at any concentration of PaHisGS and PaHisZ was calculated according to eq 2. Substrate saturation data were fitted to eq 3. Inhibition data at fixed substrate concentrations were fitted to eq 4, and competitive inhibition data were fitted to eq 5. Initial velocity patterns were fitted to eq 6, and pre-steady-state kinetics under multiple-turnover conditions was fitted to eq 7. In eqs 1–7, v is the initial rate, Vmax is the maximal velocity, G is the concentration of PaHisGS, Z is the concentration of PaHisZ, KD is the equilibrium dissociation constant, PaATPPRT is the concentration of PaHisGS-PaHisZ complex, S is the concentration of the varying substrate, kcat is the steady-state turnover number, KM is the apparent Michaelis constant, ET is total enzyme concentration, vi is the initial rate in the presence of inhibitor, IC50 is the half-maximal inhibitory concentration, Ki is the inhibitor dissociation constant, A and B are the first and second substrates to bind to the enzyme, respectively, Ka and Kb are their respective Michaelis constants, Kia is the apparent dissociation constant for the complex between enzyme and substrate A when the concentration of B approaches zero, t is time, P(t) is product concentration at time t, A0 is the amplitude of the burst phase, and kburst is the first-order rate constant of product formation in the burst phase. DSF thermal denaturation data were fitted to eq 8,[32] where FU is fraction unfolded, T is the temperature in °C, Tm is the melting temperature, c is the slope of the transition region, and LL and UL are folded and unfolded baselines, respectively. [drawing 1] 1 [drawing 2] 2 [drawing 3] 3 [drawing 4] 4 [drawing 5] 5 [drawing 6] 6 [drawing 7] 7 [drawing 8] 8

[8] = substrate: O=P(O)(O)OC[C@H]1O[C@H](OP(=O)(O)OP(=O)(O)O)[C@H](O)[C@@H]1O; test: purified protein, by the assay type; design: steady-state substrate saturation kinetics with Mg2+, Michaelis-Menten fit
Text: as §2

Molecule	Km [5]	kcat [5]	kcat/Km [5]	Km [6]	kcat [6]	kcat/Km [6]	other results
Nc1ncnc2c1ncn2[C@@H]1O[C@H](COP(=O)(O)O)[C@@H](O)[C@H]1O [AMP]	–	–	–	–	–	–	Ki [1]: 25 ± 5 µM
Nc1ncnc2c1ncn2[C@@H]1O[C@H](COP(=O)(O)OP(=O)(O)OP(=O)(O)O)[C@@H](O)[C@H]1O [ATP]	–	–	–	–	–	–	steady-state kinetics, initial velocity patterns, 31P NMR of turnover (no ITC or) [2]: once saturated PaHisGS turns over ATP and ADP just as effectively
Nc1ncnc2c1ncn2[C@@H]1O[C@H](COP(=O)(O)OP(=O)(O)O)[C@@H](O)[C@H]1O [ADP]	–	–	–	–	–	–	31P NMR of product formation and steady-state kinetics (alternative substrate, w) [3]: establishing that ADP can replace ATP as a substrate for PaHisGS
O=P(O)(O)OC[C@H]1O[C@H](OP(=O)(O)OP(=O)(O)O)[C@H](O)[C@@H]1O [PRPP]	–	–	–	–	–	–	Kd [4]: 12 ± 2 µM
PaATPPRT (Psychrobacter arcticus 273-4) (protein, hetero-octamer of four HisGS and four HisZ) MTEVTNSLPTSGLLNEANDEFLGLTLALSKGRILEETMPLLRAAGVELLEDPEASRKLIFPTSNPNVRVLILRASDVPTYVEHGAADFGVAGKDVLLEHGANHVYELLDLKIAQCKLMTAGVKDAPLPNRRLRIATKYVNVARAYFASQGQQVDVIKLYGSMELAPLVGLGDLIVDVVDTGNTLRANGLEARDHICDVSSRLIVNQVSYKRKFALLEPILDSFKNSINSTS	190 ± 30 µM	2.1 ± 0.1 s⁻¹	11100 ± 2000 M⁻¹ s⁻¹	280 ± 60 µM	2.1 ± 0.1 s⁻¹	7500 ± 2000 M⁻¹ s⁻¹	Km [7]: 720 ± 90 µM; kcat [7]: 2.7 ± 0.1 s⁻¹; kcat/Km [7]: 3800 ± 500 M⁻¹ s⁻¹; Km [8]: 430 ± 60 µM; kcat [8]: 2.7 ± 0.1 s⁻¹; kcat/Km [8]: 6000 ± 900 M⁻¹ s⁻¹
PaHisGS (short-form ATP phosphoribosyltransferase catalytic subunit) (Psychrobacter arcticus 273-4) (protein) MTEVTNSLPTSGLLNEANDEFLGLTLALSKGRILEETMPLLRAAGVELLEDPEASRKLIFPTSNPNVRVLILRASDVPTYVEHGAADFGVAGKDVLLEHGANHVYELLDLKIAQCKLMTAGVKDAPLPNRRLRIATKYVNVARAYFASQGQQVDVIKLYGSMELAPLVGLGDLIVDVVDTGNTLRANGLEARDHICDVSSRLIVNQVSYKRKFALLEPILDSFKNSINSTS	300 ± 50 µM	0.39 ± 0.05 s⁻¹	1300 M⁻¹ s⁻¹	600 ± 200 µM	0.39 ± 0.05 s⁻¹	700 ± 200 M⁻¹ s⁻¹	–
